Source: patent US20060275317A1, “Vaccine compositions for prevention of chronic and infectious diseases” (Biokit S.A., priority 2003, published 2006)
“Also recorded” adds a separate entry of the source.

Experiments:
chicken lysozyme [1] = biological target: T1, chicken lysozyme (Gallus gallus, UniProt P00698); assay: Far Western blot lysozyme-protein interaction assay; format: binding; settings: 1, 5, 10 μg immobilized lysozyme; washes with 0.05% Tween 20
Method: (§1) In order to test this hypothesis, a Far-Western blot lysozyme-protein interaction assay was performed. The assay is summarized in FIG. 5 and comprises generally the following three steps: (1) immobilization of purified lysozyme onto a membrane; (2) probing of the membrane with a ligand likely to bind directly to the lysozyme; and (3) immunodetection of the bound lysozyme-ligand. A detailed experimental procedure is presented below.
(§2) Purified chicken egg white lysozyme and human breast milk lysozyme were purchased from Sigma-Aldrich (Madrid, Spain). Two series of aliquot fractions containing 1 μg, 5 μg, and 10 μg of purified lysozyme and a protein molecular weight marker (SeeBlue Plus II™, Invitrogen SA, Barcelona, Spain) were separated electrophoretically through a 4-12% SDS-PAGE gel using the conditions recommended by the supplier (Invitrogen). The gel was then processed for Western blotting as described in Sambrook et al. (1989) according to art known methods, and the proteins were electro-transferred to an Immobilon™ P PVDF membrane (Millipore Corp., Bedford, Mass.). The presence of lysozyme immobilized onto the PVDF membrane was assessed by staining for 1 minute with Ponceau S stain (Sigma-Aldrich, Madrid, Spain), and then destained by vigorous washing for 5 minutes with desionized water. The membrane was divided in two, each portion containing a protein ladder and three quantities of chicken or human lysozyme (1 μg, 5 μg and 10 μg per lane). Each membrane was then incubated for 16 hours at 4° C. in 5 ml of TBST (10 mM Tris-HCl, pH 8.0, 150 mM NaCl, 0.05% weight/vol. Tween 20™,) supplemented with 5% (weight/vol.) of non-fat skimmed dried SVELTESSE™milk (NESTLÉ, ESPAÑA, Barcelona, Spain) (to make TBST-milk). […]

human lysozyme [2] = assay: as above; format: binding; settings: 1, 5, 10 μg immobilized lysozyme; washes with 0.05% Tween 20
Method: as §1, §2

chicken lysozyme [3] = biological target: T1, chicken lysozyme; assay: Lysozyme inhibition assay (EnzCheck, fluorescein-labeled Micrococcus lysodeikticus); format: biochemical
Method: (§3) To test this hypothesis, the antibacterial activity of both human and chicken lysozyme, in the presence or absence of GST-Tp17, was assayed using an EnzCheck® lysozyme assay kit (Molecular Probes, Eugene, Oreg.). The assay comprises the use of Fluorescein-labeled Micrococcus lysodeikticus bacterial cells as a fluorescent substrate of lysozyme. In this Gram positive bacterium, the peptidoglycan layer is directly accessible to lysozyme, and has been Fluorescein-labeled such that fluorescence is naturally quenched. Upon lysozyme hydrolysis, quenching is relieved and fluorescein is released in a quantity that is proportional to lysozyme activity. The following experimental protocol was used.
(§4) A typical 100 μl reaction consisted of 25 μl of lysozyme solution (10 units for chicken lysozyme or 50 units for human lysozyme, dissolved in deionized water), 25 μl of the test protein solution and 50 μl of a suspension of fluorescein-labeled Micrococcus lysodeikticus (50 μg/ml). The reaction was incubated for 45 minutes at 37° C. and the fluorescence was measured (λexc.=485 nm; λemi.=520 nm) using a fluorescence multi-well plate reader model FLx800 (Bio TEK instruments, Winoosky, Vt.) equipped with KC junior data acquisition software (Bio TEK Instruments, Winoosky, Vt.). Each experimental point was expressed as the mean and standard deviation corresponding to the reading of three independent wells. Wells containing 50 μl of deoinized water and […] of Fluorescein-labeled Micrococcus lysodeikticus suspension were used as a blank. Two fold serial dilutions of test protein were used to vary the concentration of the test protein from 83.5 to 1.3 μg/well.

human lysozyme [4] = assay: as above; format: biochemical
Method: as §3, §4

[5] = biological target: T2, LISOZIMA CHIESI (chicken lysozyme) (Gallus gallus, UniProt P00698); assay: Inhibition of commercial chicken lysozyme preparation (EnzCheck); format: biochemical; settings: lysozyme 4 μg/ml; molar ratio 1:5 to 1:50 GST-Tp17
T2 construct: natural hen egg-derived chicken lysozyme used in commercially available medicinal preparations; purchased CHIESI ESPAÑA SA, Barcelona, Spain
Method: (§5) Chicken Lysozyme is a potent antimicrobial enzyme active against both bacteria and viruses. Commercial preparations that contain Lysozyme as an active agent include, but are not limited to, LIZIPAINA® (Boehringer Ingelheim, San Cugat del Vallés, Spain) and LISOZIMA CHIESI (CHIESI ESPAÑA SA, Barcelona, Spain). […] To test this hypothesis, one tablet of each drug, LIZIPAINA® (containing 5 mg chicken lysozyme per tablet) and LISOZIMA CHIESI (containing 250 mg chicken lysozyme per tablet), was resuspended in deionized water (The Millipore Corporation, Bedford, Mass., USA) to adjust the Lysozyme concentration to 4 μg/ml. These samples were then incubated in absence or in presence of increasing amount of either GST-Tp17 or Tp17-HIS. In this experiment the molar ratio between chicken lysozyme and its cognate inhibitor was varied from 1:5 to 1:50 for GST-Tp17 and from 1:16 to 1:160 for Tp17-HIS. After an incubation period of 5 minutes at 20° C. the samples were assayed for lysozyme enzymatic activity using the EnzCheck® Lysozyme assay kit (E-22013; Molecular Probes Inc., Eugene, Oreg., USA) as recommended by the supplier guidelines.

[6] = biological target: T3, LIZIPAINA (chicken lysozyme) (Gallus gallus, UniProt P00698); assay: as above; format: biochemical; settings: lysozyme 4 μg/ml; molar ratio 1:5 to 1:50 GST-Tp17, 1:16 to 1:160 Tp17-HIS
T3 construct: natural hen egg-derived chicken lysozyme used in commercially available medicinal preparations; purchased Boehringer Ingelheim, San Cugat del Vallés, Spain
Method: as §5

[7] = test system: Micrococcus lysodeikticus; settings: pH 6.24, 25° C, Micrococcus lysodeikticus substrate; cited from earlier work
human lysozyme [8] = assay: POD-labeled human lysozyme binding to immobilized β-APP forms (spot blot); settings: 10 μg spotted; POD-HuLYS diluted 1/1000
Method: To test whether the β-APP protein binds huLYS, we performed lysozyme binding assays using purified, recombinant forms of β-APP. Both sAPPα (product number: S9564) and sAPPα (302-612) (product number: S8065) were purchased from Sigma-Aldrich (Tres cantos, Madrid, Spain). 10 μg of each protein was spotted onto a Nytran membrane (Scleicher & Schüell, Dassel, Germany). Non-specific adsorption sites were blocked by incubation for one hour in TBST-milk. After three washes with TBST, the membrane was incubated for one hour with horse radish peroxidase (POD)-labeled human lysozyme diluted 1/1000 in TBST-milk. Next, the membrane was washed three times, for 5 minutes each wash, with TBST. Staining was performed by adding 5 ml of POD chromogenic substrate (TMB, product number: T0565, Sigma). […] Moreover, the β-APP/huLYS protein complex likely serves as a diagnostic marker of Alzheimer's disease.

[9] = test system: Micrococcus lysodeikticus; assay: Antibacterial activity of lysozymes in presence or absence of Tp17 (EnzCheck Lysozyme assay); format: biochemical; settings: 1 unit human lysozyme or 230 units rLysozyme; 10 μg GST-Tp17 or Tp17-HIS
Method: as §3
In that context, we compared the antibacterial activity of human lysozyme (Ventria Bioscience, Sacramento, Calif., USA) and rLysozyme™ using the EnzCheck Lysozyme assay (E-22013; Molecular Probes, Eugene, Oreg.). We first determined that under the manufacturer's prescribed assay conditions, 1 unit of human lysozyme produced the same intensity of fluorescence as 230 units of rLysozyme™. Next, we measured the fluorescence intensity of either 1 unit of human lysozyme or 230 units of rLysozyme™, in the presence or absence of 10 μg of either GST-Tp17 or Tp17-HIS. […]

[10] = mature protein; cited from earlier work
[11] = 83.5 to 1.3 μg/well test protein

T1 sequence (P00698 19-147): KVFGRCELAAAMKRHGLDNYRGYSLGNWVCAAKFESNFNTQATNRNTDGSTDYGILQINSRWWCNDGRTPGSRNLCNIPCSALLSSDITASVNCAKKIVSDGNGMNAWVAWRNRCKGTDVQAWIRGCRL
T3 sequence (P00698 19-147): as above
T2 sequence (P00698 19-147): as above

## GST-Tp17: recombinant fusion protein of GST and Treponema pallidum 17 kDa antigen Tp17 (SEQ ID NO:29)
Chicken lysozyme [1]
  binding to chicken lysozyme: detected binding
Human lysozyme [2]
  binding to human lysozyme: detected binding
Chicken lysozyme [3]; as little as 1.3 μg/well test protein, 10 units lysozyme, 45 min 37° C
  inhibition of acetyl muramidase activity of chicken lysozyme: > 85%
Human lysozyme [4]; as little as 1.3 μg/well test protein, 50 units lysozyme, 45 min 37° C
  inhibition of acetyl muramidase activity of human lysozyme: > 85%
[5]
  inhibition of enzymatic antibacterial activity of LISOZIMA CHIESI: strongly inhibited
[6]
  inhibition of enzymatic antibacterial activity of LIZIPAINA: strongly inhibited

## natural human breast milk lysozyme: purified natural human breast milk lysozyme (L-6394; Sigma-Aldrich)
[7]
  specific activity: 101,000 units/mg protein

## recombinant human lysozyme: purified recombinant human lysozyme from transgenic rice (159-53LZ-90P; Ventria Bioscience)
[7]
  specific activity: 187,000 units/mg protein

## sAPPα: longer recombinant fragment of β-APP derived from the APP695 isoform (Sigma S9564)
Human lysozyme [8]
  binding of POD-labeled huLYS to immobilized protein: binding; also recorded: bound

B1: human lysozyme: human lysozyme (NP_000230); breast milk (Sigma) or recombinant (Ventria) depending on the example (protein)
chain: KVFERCELARTLKRLGMDGYRGISLANWMCLAKWESGYNTRATNYNAGDRSTDYGIFQINSRYWCNDGKTPGAVNACHLSCSALLQDNIADAVACAKRVVRDPQGIRAWVAWRNRCQNRDVRQYVQGCGV
[9]
  susceptibility of antibacterial activity to inhibition by GST-Tp17 or Tp17-HIS: strongly inhibited

B2: GST-Tp47: control fusion protein of GST and T. pallidum Tp47 antigen (protein)
chain: CGSSHHETHYGYATLSYADYWAGELGQSRDVLLAGNAEADRAGDLDAGMFDAVSRATHGHGAFRQQFQYAVEVLGEKVLSKQETEDSRGRKKWEYETDPSVTKMVRASASFQDLGEDGEIKFEAVEGAVALADRASSFMVDSEEYKITNVKVHGMKFVPVAVPHELKGIAKEKFHFVEDSRVTENTNGLKTMLTEDSFSARKVSSMESPHDLVVDTVGTGYHSRFGSDAEASVMLKRADGSELSHREFIDYVMNFNTVRYDYYGDDASYTNLMASYGTKHSADSWWKTGRVPRISCGINYGFDRFKGSGPGYYRLTLIANGYRDVVADVRFLPKYEGNIDIGLKGKVLTIGGADAETLMDAAVDVFADGQPKLVSDQAVSLGQNVLSADFTPGTEYTVEVRFKEFGSVRAKVVAQ
modifications: left off: a dimerising Fc or GST
notes: control fusion protein of GST and T. pallidum Tp47 antigen
Chicken lysozyme [1]
  binding to chicken lysozyme: No signal was detected
Human lysozyme [2]
  binding to human lysozyme: No signal was detected
Chicken lysozyme [3]; [11]
  inhibitory effect on chicken lysozyme acetyl muramidase activity: did not exert any inhibitory effect
Human lysozyme [4]; [11]
  inhibitory effect on human lysozyme acetyl muramidase activity: did not exert any inhibitory effect

B3: E. coli Ivy: Escherichia coli inhibitor of vertebrate lysozyme (P45502) (protein)
chain: QDDLTISSLAKGETTKAAFNQMVQGHKLPAWVMKGGTYTPAQTVTLGDETYQVMSACKPHDCGSQRIAVMWSEKSNQMTGLFSTIDEKTSQEKLTWLNVNDALSIDGKTVLFAALTGSLENHPDGFNFK
[10]
  pI: 5.51

B4: Tp17-HIS: recombinant mature Tp17 (residues 23 to 156) with histidine tail, expressed in E. coli EcBK633 (protein)
chain: VSCTTVCPHAGKAKAEKVECALKGGIFRGTLPAADCPGIDTTVTFNADGTAQKVELALEKKSAPSPLTYRGTWMVREDGIVELSLVSSEQSKAPHEKELYELIDSNSVRYMGAPGAGKPSKEMAPFYVLKKTKK
modifications: left off: small tags and cut ends
notes: recombinant mature Tp17 (residues 23 to 156) with histidine tail, expressed in E. coli EcBK633
[6]
  inhibition of enzymatic antibacterial activity of LIZIPAINA: strongly inhibited
